Assay results from PMC10065947.

How the values were obtained:
SH3-588 [1] = target: SH3-588 (UniProt P06241)
SH3-588 [2] = target: SH3-588 (UniProt P06241); assay: fluorescence polarisation
[3] = target: catechol O-methyltransferase (COMT), wild type (UniProt P22734)
[4] = target: naïve fusion of WT Fyn-SH3 and WT COMT (UniProt P06241)
naïve fusion 2 = naïve fusion 2 (UniProt P06241)
SH3-003 = SH3-003 (UniProt P06241)

catechol O-methyltransferase (COMT), wild type, sequence (P22734 44-264): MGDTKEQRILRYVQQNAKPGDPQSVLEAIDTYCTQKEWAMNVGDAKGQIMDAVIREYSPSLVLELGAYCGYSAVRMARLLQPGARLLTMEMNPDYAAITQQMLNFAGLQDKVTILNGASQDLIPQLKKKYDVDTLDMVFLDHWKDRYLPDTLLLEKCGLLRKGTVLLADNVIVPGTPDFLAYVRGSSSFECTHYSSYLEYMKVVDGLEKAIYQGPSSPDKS

Row | Binder | KM of methylation (steady-state kinetics, MTase-Glo) (SH3-588 [1]) | Kd (SH3-588 [2]) | KM of methylation (steady-state kinetics, MTase-Glo) [3] | KM of methylation (steady-state kinetics, MTase-Glo) [4] | other results
1 | YDLFNKGSGGAPPLPPRNRPRRS (HELM PEPTIDE1{[N[C@@H](Cc1ccc(O)c(O)c1)C(=O)[*:2]].D.L.F.N.K.G.S.G.G.A.P.P.L.P.P.R.N.R.P.R.R.S.[am]}$$$$V2.0; N-terminus assumed; SMILES CC(C)C[C@H](NC(=O)[C@H](CC(=O)O)NC(=O)[C@@H](N)Cc1ccc(O)c(O)c1)C(=O)N[C@@H](Cc1ccccc1)C(=O)N[C@@H](CC(N)=O)C(=O)N[C@@H](CCCCN)C(=O)NCC(=O)N[C@@H](CO)C(=O)NCC(=O)NCC(=O)N[C@@H](C)C(=O)N1CCC[C@H]1C(=O)N1CCC[C@H]1C(=O)N[C@@H](CC(C)C)C(=O)N1CCC[C@H]1C(=O)N1CCC[C@H]1C(=O)N[C@@H](CCCNC(=N)N)C(=O)N[C@@H](CC(N)=O)C(=O)N[C@@H](CCCNC(=N)N)C(=O)N1CCC[C@H]1C(=O)N[C@@H](CCCNC(=N)N)C(=O)N[C@@H](CCCNC(=N)N)C(=O)N[C@@H](CO)C(N)=O) [peptide 3] | 6 µM |  |  |  | 
2 | APPAPPRNRPRRSGKNFLDY (HELM PEPTIDE1{A.P.P.A.P.P.R.N.R.P.R.R.S.G.K.N.F.L.D.[O=C([C@H](Cc1ccc(O)c(O)c1)N[*:1])[*:2]].[am]}$$$$V2.0; N-terminus assumed; SMILES CC(C)C[C@H](NC(=O)[C@H](Cc1ccccc1)NC(=O)[C@H](CC(N)=O)NC(=O)[C@H](CCCCN)NC(=O)CNC(=O)[C@H](CO)NC(=O)[C@H](CCCNC(=N)N)NC(=O)[C@H](CCCNC(=N)N)NC(=O)[C@@H]1CCCN1C(=O)[C@H](CCCNC(=N)N)NC(=O)[C@H](CC(N)=O)NC(=O)[C@H](CCCNC(=N)N)NC(=O)[C@@H]1CCCN1C(=O)[C@@H]1CCCN1C(=O)[C@H](C)NC(=O)[C@@H]1CCCN1C(=O)[C@@H]1CCCN1C(=O)[C@H](C)N)C(=O)N[C@@H](CC(=O)O)C(=O)N[C@@H](Cc1ccc(O)c(O)c1)C(N)=O) [peptide 5] | 1.5 µM | 22 µM |  |  | 
3 | APPLPPRNRPRRSGKNFLDY (HELM PEPTIDE1{A.P.P.L.P.P.R.N.R.P.R.R.S.G.K.N.F.L.D.[O=C([C@H](Cc1ccc(O)c(O)c1)N[*:1])[*:2]].[am]}$$$$V2.0; N-terminus assumed; SMILES CC(C)C[C@H](NC(=O)[C@H](Cc1ccccc1)NC(=O)[C@H](CC(N)=O)NC(=O)[C@H](CCCCN)NC(=O)CNC(=O)[C@H](CO)NC(=O)[C@H](CCCNC(=N)N)NC(=O)[C@H](CCCNC(=N)N)NC(=O)[C@@H]1CCCN1C(=O)[C@H](CCCNC(=N)N)NC(=O)[C@H](CC(N)=O)NC(=O)[C@H](CCCNC(=N)N)NC(=O)[C@@H]1CCCN1C(=O)[C@@H]1CCCN1C(=O)[C@H](CC(C)C)NC(=O)[C@@H]1CCCN1C(=O)[C@@H]1CCCN1C(=O)[C@H](C)N)C(=O)N[C@@H](CC(=O)O)C(=O)N[C@@H](Cc1ccc(O)c(O)c1)C(N)=O) [peptide 4] |  | 0.69 µM |  |  | 
4 | EWAPPLPPRNRPRRSGGSKETYSK (HELM PEPTIDE1{E.W.A.P.P.L.P.P.R.N.R.P.R.R.S.G.G.S.K.E.T.[O=C([C@H](Cc1ccc(O)c(O)c1)N[*:1])[*:2]].S.K.[am]}$$$$V2.0; N-terminus assumed; SMILES CC(C)C[C@H](NC(=O)[C@@H]1CCCN1C(=O)[C@@H]1CCCN1C(=O)[C@H](C)NC(=O)[C@H](Cc1c[nH]c2ccccc12)NC(=O)[C@@H](N)CCC(=O)O)C(=O)N1CCC[C@H]1C(=O)N1CCC[C@H]1C(=O)N[C@@H](CCCNC(=N)N)C(=O)N[C@@H](CC(N)=O)C(=O)N[C@@H](CCCNC(=N)N)C(=O)N1CCC[C@H]1C(=O)N[C@@H](CCCNC(=N)N)C(=O)N[C@@H](CCCNC(=N)N)C(=O)N[C@@H](CO)C(=O)NCC(=O)NCC(=O)N[C@@H](CO)C(=O)N[C@@H](CCCCN)C(=O)N[C@@H](CCC(=O)O)C(=O)N[C@H](C(=O)N[C@@H](Cc1ccc(O)c(O)c1)C(=O)N[C@@H](CO)C(=O)N[C@@H](CCCCN)C(N)=O)[C@@H](C)O) [peptide 2] |  |  | 132 µM |  | 
5 | EWAPPLPPRNRPRRSYSK (HELM PEPTIDE1{E.W.A.P.P.L.P.P.R.N.R.P.R.R.S.[O=C([C@H](Cc1ccc(O)c(O)c1)N[*:1])[*:2]].S.K.[am]}$$$$V2.0; N-terminus assumed; SMILES CC(C)C[C@H](NC(=O)[C@@H]1CCCN1C(=O)[C@@H]1CCCN1C(=O)[C@H](C)NC(=O)[C@H](Cc1c[nH]c2ccccc12)NC(=O)[C@@H](N)CCC(=O)O)C(=O)N1CCC[C@H]1C(=O)N1CCC[C@H]1C(=O)N[C@@H](CCCNC(=N)N)C(=O)N[C@@H](CC(N)=O)C(=O)N[C@@H](CCCNC(=N)N)C(=O)N1CCC[C@H]1C(=O)N[C@@H](CCCNC(=N)N)C(=O)N[C@@H](CCCNC(=N)N)C(=O)N[C@@H](CO)C(=O)N[C@@H](Cc1ccc(O)c(O)c1)C(=O)N[C@@H](CO)C(=O)N[C@@H](CCCCN)C(N)=O) [peptide 7] | 130 µM |  |  | 400 µM | KM of methylation (steady-state kinetics, MTase-Glo) (naïve fusion 2): 0.6 µM
6 | MKEARSAEAKEAGRGSGGSKNFLDY (HELM PEPTIDE1{M.K.E.A.R.S.A.E.A.K.E.A.G.R.G.S.G.G.S.K.N.F.L.D.[O=C([C@H](Cc1ccc(O)c(O)c1)N[*:1])[*:2]].[am]}$$$$V2.0; N-terminus assumed; SMILES CSCC[C@H](N)C(=O)N[C@@H](CCCCN)C(=O)N[C@@H](CCC(=O)O)C(=O)N[C@@H](C)C(=O)N[C@@H](CCCNC(=N)N)C(=O)N[C@@H](CO)C(=O)N[C@@H](C)C(=O)N[C@@H](CCC(=O)O)C(=O)N[C@@H](C)C(=O)N[C@@H](CCCCN)C(=O)N[C@@H](CCC(=O)O)C(=O)N[C@@H](C)C(=O)NCC(=O)N[C@@H](CCCNC(=N)N)C(=O)NCC(=O)N[C@@H](CO)C(=O)NCC(=O)NCC(=O)N[C@@H](CO)C(=O)N[C@@H](CCCCN)C(=O)N[C@@H](CC(N)=O)C(=O)N[C@@H](Cc1ccccc1)C(=O)N[C@@H](CC(C)C)C(=O)N[C@@H](CC(=O)O)C(=O)N[C@@H](Cc1ccc(O)c(O)c1)C(N)=O) [peptide 1] | 19 µM |  | 42 µM | 40 µM | KM of methylation (steady-state kinetics, MTase-Glo) (SH3-003): 30 µM
